Columns and labels:
Assay in all cases: Kinase Profiling Assay
Type in all cases: biochemical
Settings in all cases: 100 μM peptide
DAPK1(h) = DAPK1(h) (Homo sapiens, UniProt P53355)
In short: (§1)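 First, MK2 inhibitor peptides were applied to a panel of 266 human kinases; then each kinase's activity was measured in duplicate to assess off-target inhibition.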

EphA3(h) = target: T1, EphA3(h) (Homo sapiens, UniProt P29320)
T1 sequence (P29320 21-983): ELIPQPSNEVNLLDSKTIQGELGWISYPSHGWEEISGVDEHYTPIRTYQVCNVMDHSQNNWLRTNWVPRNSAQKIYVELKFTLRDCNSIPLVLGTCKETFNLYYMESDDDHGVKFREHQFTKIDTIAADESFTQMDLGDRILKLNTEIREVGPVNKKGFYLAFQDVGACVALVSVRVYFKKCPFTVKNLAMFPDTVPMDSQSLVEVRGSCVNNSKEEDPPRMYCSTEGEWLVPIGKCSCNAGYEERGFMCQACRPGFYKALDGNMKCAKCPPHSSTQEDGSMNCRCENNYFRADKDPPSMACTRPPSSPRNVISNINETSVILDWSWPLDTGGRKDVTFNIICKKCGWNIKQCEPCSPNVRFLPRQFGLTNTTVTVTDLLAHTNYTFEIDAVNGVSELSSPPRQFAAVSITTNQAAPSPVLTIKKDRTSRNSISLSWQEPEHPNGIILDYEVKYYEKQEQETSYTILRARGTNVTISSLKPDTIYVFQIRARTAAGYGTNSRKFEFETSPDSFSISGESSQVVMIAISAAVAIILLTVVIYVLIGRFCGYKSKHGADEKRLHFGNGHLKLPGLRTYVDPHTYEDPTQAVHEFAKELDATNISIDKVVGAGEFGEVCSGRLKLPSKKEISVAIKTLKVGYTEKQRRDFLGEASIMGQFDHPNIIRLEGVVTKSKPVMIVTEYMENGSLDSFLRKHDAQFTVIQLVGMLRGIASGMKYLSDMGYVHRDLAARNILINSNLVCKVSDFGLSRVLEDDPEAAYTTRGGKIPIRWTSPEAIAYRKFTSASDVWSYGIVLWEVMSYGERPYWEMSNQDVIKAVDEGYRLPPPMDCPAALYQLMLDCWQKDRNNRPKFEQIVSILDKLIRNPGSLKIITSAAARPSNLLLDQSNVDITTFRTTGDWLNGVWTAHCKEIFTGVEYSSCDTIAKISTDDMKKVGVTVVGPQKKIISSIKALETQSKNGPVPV
In short: as §1

FGFR4(h) = FGFR4(h) (Homo sapiens, UniProt P22455)
In short: as §1

PKCβII(h) = PKCβII(h) (Homo sapiens, UniProt P05771)
In short: as §1

PKCθ(h) = target: T2, PKCθ(h) (Homo sapiens, UniProt Q04759)
T2 construct: purchased Millipore (IC50 Profiler Express service)
T2 sequence (Q04759 whole entry): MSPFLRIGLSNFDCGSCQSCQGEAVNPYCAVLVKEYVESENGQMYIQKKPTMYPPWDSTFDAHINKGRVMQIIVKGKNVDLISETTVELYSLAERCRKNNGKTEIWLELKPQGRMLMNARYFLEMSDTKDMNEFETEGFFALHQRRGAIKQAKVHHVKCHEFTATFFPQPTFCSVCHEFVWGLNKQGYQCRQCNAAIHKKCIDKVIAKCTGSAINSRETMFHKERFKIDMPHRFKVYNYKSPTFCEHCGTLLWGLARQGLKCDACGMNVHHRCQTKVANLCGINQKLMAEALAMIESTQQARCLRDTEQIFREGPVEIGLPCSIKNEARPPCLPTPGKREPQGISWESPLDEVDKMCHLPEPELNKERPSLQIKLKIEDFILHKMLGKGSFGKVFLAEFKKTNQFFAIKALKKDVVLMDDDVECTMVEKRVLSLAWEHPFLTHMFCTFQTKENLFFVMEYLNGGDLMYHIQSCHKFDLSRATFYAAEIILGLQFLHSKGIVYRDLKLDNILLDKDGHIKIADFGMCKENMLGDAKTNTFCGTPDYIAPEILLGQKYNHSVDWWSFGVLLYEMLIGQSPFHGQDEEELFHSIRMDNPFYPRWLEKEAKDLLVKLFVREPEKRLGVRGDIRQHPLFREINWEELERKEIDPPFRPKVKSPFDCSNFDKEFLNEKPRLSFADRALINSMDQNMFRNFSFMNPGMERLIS
In short: as §1

ROCK-I(h) = target: T3, ROCK-I(h) (Homo sapiens, UniProt Q13464)
T3 construct: purchased Millipore (IC50 Profiler Express service)
T3 sequence (Q13464 whole entry): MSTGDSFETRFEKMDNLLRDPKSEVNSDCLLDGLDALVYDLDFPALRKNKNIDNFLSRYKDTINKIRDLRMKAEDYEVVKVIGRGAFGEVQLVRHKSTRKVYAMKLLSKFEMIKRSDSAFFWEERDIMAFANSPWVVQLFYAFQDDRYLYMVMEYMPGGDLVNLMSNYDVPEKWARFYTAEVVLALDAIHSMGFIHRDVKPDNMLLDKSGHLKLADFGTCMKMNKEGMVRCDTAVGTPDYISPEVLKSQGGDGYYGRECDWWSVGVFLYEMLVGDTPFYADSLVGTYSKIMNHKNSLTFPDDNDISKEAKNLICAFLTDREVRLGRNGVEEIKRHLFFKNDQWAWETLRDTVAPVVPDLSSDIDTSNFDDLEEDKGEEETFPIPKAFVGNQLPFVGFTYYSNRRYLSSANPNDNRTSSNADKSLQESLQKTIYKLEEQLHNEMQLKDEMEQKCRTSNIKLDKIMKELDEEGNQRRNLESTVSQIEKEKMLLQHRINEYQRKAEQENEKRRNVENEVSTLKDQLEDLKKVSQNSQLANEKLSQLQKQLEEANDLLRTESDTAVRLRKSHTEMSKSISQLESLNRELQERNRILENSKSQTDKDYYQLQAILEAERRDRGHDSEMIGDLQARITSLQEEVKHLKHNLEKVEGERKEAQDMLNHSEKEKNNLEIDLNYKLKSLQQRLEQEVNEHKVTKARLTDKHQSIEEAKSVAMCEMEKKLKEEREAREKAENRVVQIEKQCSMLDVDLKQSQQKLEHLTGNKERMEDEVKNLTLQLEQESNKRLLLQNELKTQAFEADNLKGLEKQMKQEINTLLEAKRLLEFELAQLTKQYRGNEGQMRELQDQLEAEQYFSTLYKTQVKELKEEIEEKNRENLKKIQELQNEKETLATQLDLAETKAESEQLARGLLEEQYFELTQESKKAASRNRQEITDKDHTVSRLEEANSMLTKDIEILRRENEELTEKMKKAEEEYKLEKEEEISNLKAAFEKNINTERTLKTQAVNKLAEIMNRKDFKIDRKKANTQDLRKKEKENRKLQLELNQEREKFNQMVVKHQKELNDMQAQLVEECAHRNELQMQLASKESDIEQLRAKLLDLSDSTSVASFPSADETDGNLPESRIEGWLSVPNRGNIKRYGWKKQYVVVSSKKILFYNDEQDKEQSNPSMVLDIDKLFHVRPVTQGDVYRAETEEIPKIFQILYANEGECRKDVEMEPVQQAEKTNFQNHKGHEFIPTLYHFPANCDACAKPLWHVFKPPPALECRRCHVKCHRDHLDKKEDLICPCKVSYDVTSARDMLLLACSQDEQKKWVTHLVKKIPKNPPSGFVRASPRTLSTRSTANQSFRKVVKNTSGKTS
In short: as §1

SGK(h) = target: T4, SGK(h) (Homo sapiens, UniProt O00141)
T4 sequence (O00141 1-431): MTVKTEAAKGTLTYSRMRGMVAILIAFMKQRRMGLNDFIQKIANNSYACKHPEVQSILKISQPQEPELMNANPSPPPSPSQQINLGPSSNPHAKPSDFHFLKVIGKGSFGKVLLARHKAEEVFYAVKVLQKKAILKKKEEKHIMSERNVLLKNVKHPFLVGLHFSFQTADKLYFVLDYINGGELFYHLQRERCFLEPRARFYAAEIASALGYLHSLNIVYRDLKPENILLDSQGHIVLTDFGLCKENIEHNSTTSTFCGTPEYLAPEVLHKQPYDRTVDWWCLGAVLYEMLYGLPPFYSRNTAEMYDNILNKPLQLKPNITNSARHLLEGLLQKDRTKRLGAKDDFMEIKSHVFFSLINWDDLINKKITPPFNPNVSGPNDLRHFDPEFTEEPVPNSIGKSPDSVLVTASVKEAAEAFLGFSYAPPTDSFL
In short: as §1

TAO1(h) = target: T5, TAO1(h) (Homo sapiens, UniProt Q7L7X3)
T5 sequence (Q7L7X3 1-1001): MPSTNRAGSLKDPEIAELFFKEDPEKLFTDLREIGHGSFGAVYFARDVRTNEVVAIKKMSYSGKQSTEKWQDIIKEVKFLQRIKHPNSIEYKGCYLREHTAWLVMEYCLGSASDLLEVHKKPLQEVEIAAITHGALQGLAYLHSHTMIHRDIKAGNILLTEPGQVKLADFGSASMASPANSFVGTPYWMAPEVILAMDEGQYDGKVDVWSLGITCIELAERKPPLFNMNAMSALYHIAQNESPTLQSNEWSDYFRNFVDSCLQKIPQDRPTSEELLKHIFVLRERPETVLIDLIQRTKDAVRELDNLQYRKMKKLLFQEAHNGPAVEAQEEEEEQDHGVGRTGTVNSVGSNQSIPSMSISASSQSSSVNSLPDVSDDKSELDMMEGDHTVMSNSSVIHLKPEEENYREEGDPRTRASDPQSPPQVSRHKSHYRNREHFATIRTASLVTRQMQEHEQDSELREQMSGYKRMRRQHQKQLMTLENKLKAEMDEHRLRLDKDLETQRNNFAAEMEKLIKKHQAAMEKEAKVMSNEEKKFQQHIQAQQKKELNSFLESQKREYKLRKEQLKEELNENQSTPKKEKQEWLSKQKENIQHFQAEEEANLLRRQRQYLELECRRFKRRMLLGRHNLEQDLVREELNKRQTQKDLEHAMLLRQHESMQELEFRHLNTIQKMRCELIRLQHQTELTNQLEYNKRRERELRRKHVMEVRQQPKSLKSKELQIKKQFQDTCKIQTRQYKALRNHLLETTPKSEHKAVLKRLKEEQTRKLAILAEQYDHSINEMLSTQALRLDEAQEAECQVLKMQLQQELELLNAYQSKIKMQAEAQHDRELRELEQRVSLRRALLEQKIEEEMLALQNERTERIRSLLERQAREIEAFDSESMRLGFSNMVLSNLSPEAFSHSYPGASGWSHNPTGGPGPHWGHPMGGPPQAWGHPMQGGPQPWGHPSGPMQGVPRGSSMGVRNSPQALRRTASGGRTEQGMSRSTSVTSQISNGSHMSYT
In short: as §1

cKit(h) = cKit(h) (Homo sapiens, UniProt P10721)
In short: as §1

mTOR/FKBP12(h) = mTOR/FKBP12(h) (Homo sapiens, UniProt P42345)
Chain of mTOR/FKBP12(h) (P42345 1362-2549 limits assumed): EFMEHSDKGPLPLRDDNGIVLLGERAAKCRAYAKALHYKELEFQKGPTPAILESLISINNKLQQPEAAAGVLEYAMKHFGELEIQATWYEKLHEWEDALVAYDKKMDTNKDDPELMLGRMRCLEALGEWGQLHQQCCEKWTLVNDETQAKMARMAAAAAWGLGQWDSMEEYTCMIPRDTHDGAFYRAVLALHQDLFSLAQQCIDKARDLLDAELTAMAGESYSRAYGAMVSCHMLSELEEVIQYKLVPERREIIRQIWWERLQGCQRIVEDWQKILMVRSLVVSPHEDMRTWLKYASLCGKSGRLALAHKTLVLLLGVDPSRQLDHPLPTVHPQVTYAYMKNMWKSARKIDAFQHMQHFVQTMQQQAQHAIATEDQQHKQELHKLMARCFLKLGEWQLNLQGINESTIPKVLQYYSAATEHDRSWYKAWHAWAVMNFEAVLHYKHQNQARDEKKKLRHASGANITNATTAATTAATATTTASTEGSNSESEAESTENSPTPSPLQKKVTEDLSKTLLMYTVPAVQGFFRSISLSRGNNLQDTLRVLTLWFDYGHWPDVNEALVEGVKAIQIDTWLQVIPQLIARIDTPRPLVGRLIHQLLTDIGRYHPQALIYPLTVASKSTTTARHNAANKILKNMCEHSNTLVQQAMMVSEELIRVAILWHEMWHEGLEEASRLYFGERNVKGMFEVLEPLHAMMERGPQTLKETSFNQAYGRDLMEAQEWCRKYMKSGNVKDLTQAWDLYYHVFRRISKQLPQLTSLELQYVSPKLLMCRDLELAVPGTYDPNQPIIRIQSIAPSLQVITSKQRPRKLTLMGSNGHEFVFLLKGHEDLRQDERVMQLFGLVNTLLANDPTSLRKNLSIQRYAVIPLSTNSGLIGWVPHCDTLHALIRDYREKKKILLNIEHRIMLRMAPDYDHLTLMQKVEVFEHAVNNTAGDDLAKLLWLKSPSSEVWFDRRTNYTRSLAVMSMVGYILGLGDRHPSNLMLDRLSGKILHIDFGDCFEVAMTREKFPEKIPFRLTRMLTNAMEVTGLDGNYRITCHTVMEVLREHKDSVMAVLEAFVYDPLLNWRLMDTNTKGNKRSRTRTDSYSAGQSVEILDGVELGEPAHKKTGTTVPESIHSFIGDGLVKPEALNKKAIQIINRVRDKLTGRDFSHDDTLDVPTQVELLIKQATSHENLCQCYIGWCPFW
In short: as §1

Chain of DAPK1(h) (P53355 whole entry): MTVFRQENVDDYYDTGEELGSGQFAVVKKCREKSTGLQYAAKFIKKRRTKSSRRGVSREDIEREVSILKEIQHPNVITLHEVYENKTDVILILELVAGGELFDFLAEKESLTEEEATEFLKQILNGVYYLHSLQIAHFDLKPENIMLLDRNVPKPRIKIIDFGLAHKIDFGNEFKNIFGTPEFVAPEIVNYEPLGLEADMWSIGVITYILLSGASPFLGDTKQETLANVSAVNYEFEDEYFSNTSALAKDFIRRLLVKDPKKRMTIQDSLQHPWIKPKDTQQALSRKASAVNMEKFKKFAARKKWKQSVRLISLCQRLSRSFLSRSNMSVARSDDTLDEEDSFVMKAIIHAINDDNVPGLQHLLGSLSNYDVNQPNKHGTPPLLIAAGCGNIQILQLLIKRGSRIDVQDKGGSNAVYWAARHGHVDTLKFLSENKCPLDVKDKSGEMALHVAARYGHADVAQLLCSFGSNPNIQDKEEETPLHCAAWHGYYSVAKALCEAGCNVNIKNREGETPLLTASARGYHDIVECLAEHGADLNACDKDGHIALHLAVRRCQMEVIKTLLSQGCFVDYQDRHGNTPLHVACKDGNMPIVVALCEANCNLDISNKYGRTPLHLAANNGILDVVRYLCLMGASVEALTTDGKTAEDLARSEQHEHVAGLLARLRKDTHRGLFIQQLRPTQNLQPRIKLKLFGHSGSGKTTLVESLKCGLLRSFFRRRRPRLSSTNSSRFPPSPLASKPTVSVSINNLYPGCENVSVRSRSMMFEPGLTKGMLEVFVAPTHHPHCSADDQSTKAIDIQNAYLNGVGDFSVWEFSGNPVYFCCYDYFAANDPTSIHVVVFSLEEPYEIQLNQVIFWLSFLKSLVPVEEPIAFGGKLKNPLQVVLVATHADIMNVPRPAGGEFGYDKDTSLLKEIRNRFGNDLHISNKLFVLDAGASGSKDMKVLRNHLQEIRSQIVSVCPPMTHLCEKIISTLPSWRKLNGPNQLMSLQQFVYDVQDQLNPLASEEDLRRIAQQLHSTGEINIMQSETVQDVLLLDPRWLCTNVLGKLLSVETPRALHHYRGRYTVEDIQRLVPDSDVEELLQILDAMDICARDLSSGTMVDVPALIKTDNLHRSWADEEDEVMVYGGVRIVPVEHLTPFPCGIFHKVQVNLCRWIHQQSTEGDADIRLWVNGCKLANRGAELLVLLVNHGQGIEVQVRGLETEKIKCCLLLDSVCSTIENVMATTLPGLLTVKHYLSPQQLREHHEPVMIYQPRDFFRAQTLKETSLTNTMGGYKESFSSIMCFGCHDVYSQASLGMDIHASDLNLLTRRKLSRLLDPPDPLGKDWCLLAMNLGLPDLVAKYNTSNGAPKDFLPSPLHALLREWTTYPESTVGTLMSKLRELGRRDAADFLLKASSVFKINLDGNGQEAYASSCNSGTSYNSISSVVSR

| Sequence | DAPK1(h) % activity (DAPK1(h)) | EphA3(h) % activity (EphA3(h)) | FGFR4(h) % activity (FGFR4(h)) | PKCβII(h) % activity (PKCβII(h)) | PKCθ(h) % activity (PKCθ(h)) | ROCK-I(h) % activity (ROCK-I(h)) | SGK(h) % activity (SGK(h)) | TAO1(h) % activity (TAO1(h)) | cKit(h) % activity (cKit(h)) | mTOR/FKBP12(h) % activity (mTOR/FKBP12(h)) |
| --- | --- | --- | --- | --- | --- | --- | --- | --- | --- | --- |
| FAKLAARLYRKALARQLGVAA [MMI-0300] | 46% | 6% | 28% | 82% | 88% | 79% | 48% | 82% | 53% | 145% |
| HRRIKAWLKKIKALARQLGVAA (Mammalian) [MMI-0500] | 0% | 33% | 3% | 3% | 62% | 17% | 2% | 24% | 45% | 140% |
| KAFAKLAARLYRKALARQLGVAA [MMI-0400] | 36% | 12% | 19% | 75% | 76% | 73% | 54% | 73% | 43% | 125% |
| YARAAARQARAKALNRQLGVA (Mammalian) [MMI-0200] | – | – | 75% | 100% | 101% | – | – | – | 110% | 118% |

From patent publication US10562947B2, “Compositions and methods for preventing or treating diseases, conditions or processes characterized by aberrant fibroblast proliferation and extracellular matrix deposition” (MOERAE MATRIX, INC., priority 2011, dated 2020)
